Assay results published in the MegaScale stability set (Tsuboyama et al. 2023).

B1: r11_951_TrROS_Hall (parent)
chain: KKKYVIKVYFEDTGKEVEIEAESKEEALEAAKRLAEELGLKIKKVEIYP
B2: EEHEE_rd3_0130 (parent)
chain: TKIIVNGKTFTAPTEEEAQKIAEKLAKKAGLTVHKKNGTFELK

Variants of: B1
Assay: folding stability dG (cDNA display proteolysis); higher = more stable
Conditions: PBS, room temperature

Variant | folding stability dG
I42H | 2.67 kcal/mol
I42K | 2.18 kcal/mol
I42L | 4.32 kcal/mol
I42M | 3.99 kcal/mol
I42N | 2.55 kcal/mol
I42P | 3.23 kcal/mol
I42Q | 2.53 kcal/mol
I42R | 2.53 kcal/mol
I42S | 2.64 kcal/mol
I42T | 2.88 kcal/mol
I42V | 4.17 kcal/mol
I42W | 4.05 kcal/mol
I42Y | 3.75 kcal/mol
K43A | 4.4 kcal/mol
K43C | 4.13 kcal/mol
K43D | 4.29 kcal/mol
K43E | 4.35 kcal/mol
K43F | 4.53 kcal/mol
K43G | 4.25 kcal/mol
K43H | 4.33 kcal/mol
K43I | 4.43 kcal/mol
K43L | 4.36 kcal/mol
K43M | 4.44 kcal/mol
K43N | 4.29 kcal/mol
K43P | 2.93 kcal/mol

Variant | folding stability dG
K43Q | 4.26 kcal/mol
K43R | 4.64 kcal/mol
K43S | 4.15 kcal/mol
K43T | 4.32 kcal/mol
K43V | 4.22 kcal/mol
K43W | 4.81 kcal/mol
K44A | 4.26 kcal/mol
K44C | 4.11 kcal/mol
K44D | 3.95 kcal/mol
K44E | 4.25 kcal/mol
K44F | 4.3 kcal/mol
K44G | 4.12 kcal/mol
K44H | 4.47 kcal/mol
K44I | 4.21 kcal/mol
K44L | 4.14 kcal/mol
K44M | 4.31 kcal/mol
K44N | 4.41 kcal/mol
K44P | 2.69 kcal/mol
K44Q | 4.34 kcal/mol
K44R | 4.4 kcal/mol
K44S | 4.42 kcal/mol
K44T | 4.17 kcal/mol
K44V | 4.17 kcal/mol
K44W | 4.24 kcal/mol
K44Y | 4.34 kcal/mol

Variant | folding stability dG
V45A | 3.96 kcal/mol
V45C | 4.16 kcal/mol
V45D | 2.62 kcal/mol
V45E | 3.18 kcal/mol
V45F | 4.48 kcal/mol
V45G | 2.79 kcal/mol
V45H | 4.08 kcal/mol
V45I | 3.98 kcal/mol
V45K | 3.16 kcal/mol
V45L | 4.08 kcal/mol
V45M | 4.47 kcal/mol
V45N | 3.32 kcal/mol
V45P | 2.52 kcal/mol
V45Q | 3.87 kcal/mol
V45R | 2.97 kcal/mol
V45S | 3.94 kcal/mol
V45T | 4.16 kcal/mol
V45W | 4.59 kcal/mol
V45Y | 4.45 kcal/mol
E46A | 4.32 kcal/mol
E46C | 4.15 kcal/mol
E46D | 4.38 kcal/mol
E46F | 4.64 kcal/mol
E46G | 3.71 kcal/mol
E46H | 4.53 kcal/mol

Variant | folding stability dG
E46I | 4.47 kcal/mol
E46K | 4.22 kcal/mol
E46L | 4.38 kcal/mol
E46M | 4.49 kcal/mol
E46N | 4.19 kcal/mol
E46P | 2.41 kcal/mol
E46Q | 4.26 kcal/mol
E46R | 4.16 kcal/mol
E46S | 4.33 kcal/mol
E46T | 4.36 kcal/mol
E46V | 4.66 kcal/mol
E46W | 4.47 kcal/mol
E46Y | 4.61 kcal/mol
I47A | 4.17 kcal/mol
I47C | 4.13 kcal/mol
I47D | 3.99 kcal/mol
I47E | 4.33 kcal/mol
I47F | 4.32 kcal/mol
I47G | 4.06 kcal/mol
I47H | 4.35 kcal/mol
I47K | 3.7 kcal/mol
I47L | 4.48 kcal/mol
I47M | 4.53 kcal/mol
I47N | 3.89 kcal/mol
I47P | 4.04 kcal/mol

Variant | folding stability dG
I47Q | 4.25 kcal/mol
I47R | 3.79 kcal/mol
I47S | 4.24 kcal/mol
I47T | 4.17 kcal/mol
I47V | 4.33 kcal/mol
I47W | 4.49 kcal/mol
I47Y | 4.47 kcal/mol
Y48A | 4.25 kcal/mol
Y48C | 4.46 kcal/mol
Y48D | 4.13 kcal/mol
Y48E | 4.1 kcal/mol
Y48F | 4.64 kcal/mol
Y48G | 4.33 kcal/mol
Y48H | 4.44 kcal/mol
Y48I | 4.43 kcal/mol
Y48K | 4.2 kcal/mol
Y48L | 4.44 kcal/mol
Y48M | 4.4 kcal/mol
Y48N | 4.45 kcal/mol
Y48P | 4.09 kcal/mol
Y48Q | 4.37 kcal/mol
Y48R | 4.36 kcal/mol
Y48S | 4.2 kcal/mol
Y48T | 4.52 kcal/mol
Y48V | 4.45 kcal/mol

Variant | folding stability dG
Y48W | 4.51 kcal/mol
P49A | 4.33 kcal/mol
P49C | 4.52 kcal/mol
P49D | 4.59 kcal/mol
P49E | 4.66 kcal/mol
P49F | 4.6 kcal/mol
P49G | 4.49 kcal/mol
P49H | 4.93 kcal/mol
P49I | 4.72 kcal/mol
P49K | 4.5 kcal/mol
P49L | 4.62 kcal/mol
P49M | 4.69 kcal/mol
P49N | 4.68 kcal/mol
P49Q | 4.71 kcal/mol
P49R | 4.5 kcal/mol
P49S | 4.62 kcal/mol
P49T | 4.62 kcal/mol
P49V | 4.45 kcal/mol
P49W | 4.59 kcal/mol
P49Y | 4.78 kcal/mol

Variants of: B2
Assay: as above
Conditions: PBS, room temperature

Variant | folding stability dG
E15V | 0.847 kcal/mol
T14C | 0.682 kcal/mol
L42Q | 0.021 kcal/mol
K8S | 0.223 kcal/mol
E17S | 0.635 kcal/mol
F40Y | 0.608 kcal/mol
N37T | -0.324 kcal/mol
L25R | -0.578 kcal/mol
L25F | 0.651 kcal/mol
L31C | -0.1 kcal/mol
I4K | 0.465 kcal/mol
F40K | -0.039 kcal/mol
A22S | 0.153 kcal/mol
I4S | 0.124 kcal/mol
N37C | 1.05 kcal/mol
K20I | 0.836 kcal/mol
K20A | 0.82 kcal/mol
L25Y | 0.649 kcal/mol
N6W | 1.47 kcal/mol
K28F | 0.971 kcal/mol
G7N | 0.208 kcal/mol
T14G | 0.32 kcal/mol
